The text below walks through data of article PMC4601081, “A Single α Helix Drives Extensive Remodeling of the Proteasome Lid and Completion of Regulatory Particle Assembly” (Cell, 2015).

The chains are these.
T1: Rpn3, subunit of LP2 and lid purified from yeast (S. cerevisiae, UniProt P40016 1-523)
T1 construct: Rpn3, S. cerevisiae proteasome lid subunit; source: purified from S. cerevisiae as part of LP2 or lid
T1 sequence (looked up): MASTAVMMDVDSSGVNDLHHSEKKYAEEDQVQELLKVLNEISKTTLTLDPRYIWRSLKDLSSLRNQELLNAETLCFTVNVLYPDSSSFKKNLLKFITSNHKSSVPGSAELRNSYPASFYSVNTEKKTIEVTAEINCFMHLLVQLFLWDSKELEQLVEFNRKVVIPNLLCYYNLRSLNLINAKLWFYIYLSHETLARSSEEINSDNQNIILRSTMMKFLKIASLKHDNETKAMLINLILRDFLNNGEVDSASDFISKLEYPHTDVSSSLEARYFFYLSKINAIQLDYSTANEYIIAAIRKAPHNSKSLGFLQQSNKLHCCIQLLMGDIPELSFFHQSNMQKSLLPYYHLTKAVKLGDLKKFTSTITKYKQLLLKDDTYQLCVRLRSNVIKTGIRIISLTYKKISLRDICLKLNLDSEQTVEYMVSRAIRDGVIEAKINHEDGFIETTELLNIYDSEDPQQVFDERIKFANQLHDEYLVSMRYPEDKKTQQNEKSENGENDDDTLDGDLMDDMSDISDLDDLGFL

T2: Rpn7, subunit of LP2 and lid purified from yeast (S. cerevisiae, UniProt Q06103 1-429)
T2 construct: Rpn7, S. cerevisiae proteasome lid subunit; source: purified from S. cerevisiae as part of LP2 or lid
T2 sequence (looked up): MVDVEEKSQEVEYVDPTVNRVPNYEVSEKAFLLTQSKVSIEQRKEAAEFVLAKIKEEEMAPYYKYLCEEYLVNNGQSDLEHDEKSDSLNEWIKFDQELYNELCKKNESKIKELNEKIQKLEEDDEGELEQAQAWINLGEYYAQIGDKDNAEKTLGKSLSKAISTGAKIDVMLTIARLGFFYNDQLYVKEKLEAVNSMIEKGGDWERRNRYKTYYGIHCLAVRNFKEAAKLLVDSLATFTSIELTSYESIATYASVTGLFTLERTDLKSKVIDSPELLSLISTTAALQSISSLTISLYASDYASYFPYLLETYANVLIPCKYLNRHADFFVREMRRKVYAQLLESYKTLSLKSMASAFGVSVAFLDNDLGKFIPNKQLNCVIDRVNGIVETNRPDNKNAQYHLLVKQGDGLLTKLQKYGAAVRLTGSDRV

T3: Rpn8, subunit of LP2 and lid purified from yeast (S. cerevisiae, UniProt Q08723 1-338)
T3 construct: Rpn8, S. cerevisiae proteasome lid subunit; source: purified from S. cerevisiae as part of LP2 or lid
T3 sequence (looked up): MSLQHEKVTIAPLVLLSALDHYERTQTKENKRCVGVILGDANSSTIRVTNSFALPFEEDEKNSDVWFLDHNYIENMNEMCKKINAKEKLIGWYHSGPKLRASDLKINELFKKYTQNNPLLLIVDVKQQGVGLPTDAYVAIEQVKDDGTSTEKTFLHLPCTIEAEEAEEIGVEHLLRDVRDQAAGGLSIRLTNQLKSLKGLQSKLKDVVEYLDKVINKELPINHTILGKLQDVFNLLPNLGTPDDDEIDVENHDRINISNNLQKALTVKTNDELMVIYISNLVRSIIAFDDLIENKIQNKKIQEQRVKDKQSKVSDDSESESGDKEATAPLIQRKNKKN

B1: Rpn5, subunit of LP2 and lid purified from yeast (natural protein, S. cerevisiae, UniProt Q12250 1-445, looked up)
chain: MSRDAPIKADKDYSQILKEEFPKIDSLAQNDCNSALDQLLVLEKKTRQASDLASSKEVLAKIVDLLASRNKWDDLNEQLTLLSKKHGQLKLSIQYMIQKVMEYLKSSKSLDLNTRISVIETIRVVTENKIFVEVERARVTKDLVEIKKEEGKIDEAADILCELQVETYGSMEMSEKIQFILEQMELSILKGDYSQATVLSRKILKKTFKNPKYESLKLEYYNLLVKISLHKREYLEVAQYLQEIYQTDAIKSDEAKWKPVLSHIVYFLVLSPYGNLQNDLIHKIQNDNNLKKLESQESLVKLFTTNELMRWPIVQKTYEPVLNEDDLAFGGEANKHHWEDLQKRVIEHNLRVISEYYSRITLLRLNELLDLTESQTETYISDLVNQGIIYAKVNRPAKIVNFEKPKNSSQLLNEWSHNVDELLEHIETIGHLITKEEIMHGLQAK
notes: Rpn5, S. cerevisiae proteasome lid subunit; source: purified from S. cerevisiae as part of LP2 or lid
B2: Rpn6, subunit of LP2 and lid purified from yeast (natural protein, S. cerevisiae, UniProt Q12377 1-434, looked up)
chain: MSLPGSKLEEARRLVNEKQYNEAEQVYLSLLDKDSSQSSAAAGASVDDKRRNEQETSILELGQLYVTMGAKDKLREFIPHSTEYMMQFAKSKTVKVLKTLIEKFEQVPDSLDDQIFVCEKSIEFAKREKRVFLKHSLSIKLATLHYQKKQYKDSLALINDLLREFKKLDDKPSLVDVHLLESKVYHKLRNLAKSKASLTAARTAANSIYCPTQTVAELDLMSGILHCEDKDYKTAFSYFFESFESYHNLTTHNSYEKACQVLKYMLLSKIMLNLIDDVKNILNAKYTKETYQSRGIDAMKAVAEAYNNRSLLDFNTALKQYEKELMGDELTRSHFNALYDTLLESNLCKIIEPFECVEISHISKIIGLDTQQVEGKLSQMILDKIFYGVLDQGNGWLYVYETPNQDATYDSALELVGQLNKVVDQLFEKASVLY
notes: Rpn6, S. cerevisiae proteasome lid subunit; Also stands as the whole protein for the region row on the E. coli truncations; source: purified from S. cerevisiae as part of LP2 or lid
B3: Rpn12-E271K, recombinant (natural protein, S. cerevisiae, UniProt P32496 1-274, looked up)
chain: MPSLAELTKSLSIAFENGDYAACEKLLPPIKIELIKNNLLIPDLSIQNDIYLNDLMITKRILEVGALASIQTFNFDSFENYFNQLKPYYFSNNHKLSESDKKSKLISLYLLNLLSQNNTTKFHSELQYLDKHIKNLEDDSLLSYPIKLDRWLMEGSYQKAWDLLQSGSQNISEFDSFTDILKSAIRDEIAKNTELSYDFLPLSNIKALLFFNNEKETEKFALERNWPIVNSKVYFNNQSKEKADYEDEMMHEEDQKTNIIEKAMDYAISIKNIV
notes: Rpn12, S. cerevisiae proteasome lid subunit, Glu271 to lysine
B4: Sem1, subunit of LP2 and lid purified from yeast (natural protein, S. cerevisiae, UniProt O94742 1-89, looked up)
chain: MSTDVAAAQAQSKIDLTKKKNEEINKKSLEEDDEFEDFPIDTWANGETIKSNAVTQTNIWEENWDDVEVDDDFTNELKAELDRYKRENQ
notes: Sem1, S. cerevisiae proteasome lid subunit; source: purified from S. cerevisiae as part of LP2 or lid

What all share (settings): both partners purified
Assay [1] addresses T1, Rpn3, subunit of LP2 and lid purified …. Nature of the assay: cross-linking; QCLMS of lid purified from yeast as a whole complex: BS3-d0 / BS3-d4 at 1:200 protein to cross-linker, Buffer HA, 30°C 1 h; monomeric cross-linked complex cut from SDS-PAGE, trypsin, LC-MS/MS.
The target is the same in assay [2]. Nature of the assay: negative-stain EM; single-particle 3D reconstruction of LP2 purified from yeast at 16 Å; ~50 nM complex in Buffer A, 2% uranyl acetate.
In assay [3] the target is B1. Nature of the assay: cross-linking; QCLMS of lid purified from yeast as a whole complex: BS3-d0 / BS3-d4 at 1:200 protein to cross-linker, Buffer HA, 30°C 1 h; monomeric cross-linked complex cut from SDS-PAGE, trypsin, LC-MS/MS.
In assay [4] the target is T4, lid particle 2 (LP2), recombinant (S. cerevisiae, UniProt P40016 1-523; Q12250 1-445; Q12377 1-434; Q06103 1-429; Q08723 1-338; Q04062 …).
T4 construct: Rpn3, S. cerevisiae proteasome lid subunit; Rpn5, S. cerevisiae proteasome lid subunit; Rpn6, S. cerevisiae proteasome lid subunit; Rpn7, S. cerevisiae proteasome lid subunit; Rpn8, S. cerevisiae proteasome lid subunit; Rpn9, S. cerevisiae proteasome lid subunit; Rpn11, S. cerevisiae proteasome lid subunit; Sem1, S. cerevisiae proteasome lid subunit; legends speak of 'untagged LP2'; operons as in …
Nature of the assay: native gel or EMSA; RP assembly assay: recombinant components 1 uM each with 10 uM Rpn10 in 26S buffer (50 mM Tris-HCl pH 7.5, 5 mM MgCl2, 10% glycerol, 1 mM ATP), 30°C 20 min; native PAGE at 4°C; Coomassie or immunoblot (FLAG on Rpt1, HA on Rpn7, Rpn12).

Assay [5] addresses T1, Rpn3, subunit of LP2 and lid purified …. As to the kind of experiment: cross-linking; QCLMS of LP2 purified from yeast as a whole complex: BS3-d0 / BS3-d4 at 1:200 protein to cross-linker, Buffer HA, 30°C 1 h; monomeric cross-linked complex cut from SDS-PAGE, trypsin, LC-MS/MS.
The target of assay [6] is T2, Rpn7, subunit of LP2 and lid purified …. The description is as above.
Assay [7] has as its target T3, Rpn8, subunit of LP2 and lid purified …. As to the kind of experiment: cross-linking; QCLMS of lid purified from yeast as a whole complex: BS3-d0 / BS3-d4 at 1:200 protein to cross-linker, Buffer HA, 30°C 1 h; monomeric cross-linked complex cut from SDS-PAGE, trypsin, LC-MS/MS.

T4 sequence (P43588 whole entry, one chain of several): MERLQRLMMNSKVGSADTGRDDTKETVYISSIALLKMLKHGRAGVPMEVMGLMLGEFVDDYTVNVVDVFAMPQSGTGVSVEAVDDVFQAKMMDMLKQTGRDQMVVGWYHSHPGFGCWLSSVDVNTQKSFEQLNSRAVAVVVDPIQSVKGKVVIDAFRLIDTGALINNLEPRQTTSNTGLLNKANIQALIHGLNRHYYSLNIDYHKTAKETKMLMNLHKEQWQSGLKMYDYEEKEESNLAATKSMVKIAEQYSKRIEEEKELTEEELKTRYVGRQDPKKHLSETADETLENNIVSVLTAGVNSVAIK

For B1, the binding result in assay [1] was “binds”.

Take B2: the binding result in assay [2] and in assay [3] was “binds” in each case.

Regarding B3, in assay [4], the binding result is “binds”.

With B4, the binding result in assay [5], in assay [6] and in assay [7] was “binds” in each case.
